CN109467603A (BIOCELLS BEIJING BIOTECHNOLOGY CO LTD, dated 2019)

How the values were obtained:
[1] = biological target: 生物素化PD-1 (PD-1:PD-L1抑制剂筛选试剂盒, AcroBiosystems，EP-101) (UniProt Q15116); experiment: competition ELISA, PD-L1 coated, biotinylated PD-1; positive control antibody
T细胞表面PD-1 (human) [2] = biological target: T细胞表面PD-1 (human) (UniProt Q15116); experiment: flow cytometry, MNC co-cultured with DC, no BXOS antibody
T细胞表面PD-1 (human) [3] = biological target: T细胞表面PD-1 (human) (UniProt Q15116); experiment: flow cytometry, MNC cultured alone 3 days, no BXOS antibody
[4] = biological target: T1, 人PD-1重组蛋白(Acro Biosystems，PD-1-H5221) (human, UniProt Q15116 25-167); experiment: phage ELISA on coated human PD-1 recombinant protein
T1 construct: Bought
T1 sequence (Q15116 25-167 limits assumed): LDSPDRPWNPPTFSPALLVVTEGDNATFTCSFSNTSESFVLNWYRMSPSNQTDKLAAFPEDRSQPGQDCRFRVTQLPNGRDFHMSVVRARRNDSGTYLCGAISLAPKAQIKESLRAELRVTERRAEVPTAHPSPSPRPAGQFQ

| binding result [4] | Molecule | further results |
| --- | --- | --- |
| binds | scFv3 (scFv) scFv: QVQLVQSGAEVKKPGSSVKVSCKASGGTFSSYAISWVRQAPGQGLEWMGRIIPILGIANYAQKFQGRVTITADKSTSTAYKELSSLRSEDTAVYYCAAPLPKNGVYPWGQGTLVTVSSGGGGSGGGGSGGGGSGGGGSEIVMTQSPATLSSSPGERVTLSCRASQSVTSHLAWYQQRPGQAPRLLIYDASKRATGIPARFSGSGSGTDFTLTISSLEPEDFATYYCLQDYRYPRTFGQGTKVEIKR | – |
| binds | scFv4 (scFv) scFv: QVQLVQSGGGLVKPGGSLRLSCVASGFTFSNSGMHWVRQAPGKGLEWVAVIWYDGSKRYYADSVKGRFTISRDNSKNTLFLQMNSLRAEDTAVYYCATNDDYWGQGTLVTVSSGGGGSGGGGSGGGGSEIVMTQSPATLSLSPGERATLSCRASQSVSSNLAWYQQKPGQAPRLLIYDASTRATGIPARFSGSGSGTDFTLTISSLQPEDFATYYCLQDYNYPRTFGQGTKLEIKR | – |
| binds | scFv2 (scFv) scFv: QVQLVESGGGVVQPGKSLRLSCAASGFSFRNYDMHWVRQAPGRGLEWVAVTWYDGSNKYYADSVKGRFTISRDNSKNTVYLHINSLRAEDTAVYYCAKDQAHYYNYSTGHFSYYFDSWGQGTLVTVSGGGGSGGGGSGGGGSEIVLTQSPATLSLSPGQRATLSCRTSQTIRKHLAWYQQKPGQAPRLLVYDISSRATGIPARFSGSGSGTDFTLTISSLQPDDFATYYCQRYDTYPRTFGQGTKVEIKR | – |

The next lines start with the molecule.

| Molecule | binding result [4] | further results |
| --- | --- | --- |
| 阳性对照αPD-1单克隆抗体:Anti-PD1mAb，Human(IgG4)Lot No.B52-63NS1-AS,ACRO Biosystems (antibody) | – | 阻断率 [1]: 70.7 % |
| 商品化的抗PD-1的流式抗体PD-1-PE(biolegend，329906) | – | PD-1表达量 (% of T cells stained by PD-1-PE) (T细胞表面PD-1 (human) [2]): 32.6 %; PD-1表达量 (% of T cells stained by PD-1-PE) (T细胞表面PD-1 (human) [3]): 26.2 % |
| scFv1 (scFv) scFv: QVQLVQSGGDLVKPGGSLRLSCATSGFTFSTYNMHWVRQAPGKGLEWVSSISRSSDYIYYADSVKGRFTMSRDNAKTSLYLQMNSLRADDTAVYYCARDSWIYDGSGYSSDAFDIWGQGTMVTVSGGGGSGGGGSGGGGSEIVLTQSPATLSLSPGERATLSCRASQSISSYLSWYQQKPGQAPRLLIYDASNRATGIPARFSGGGSGTDFTLTISSLEPEDFAVYYCQQRNSWPLTFGGGTKVEIKR | binds | – |
| scFv5 (scFv) scFv: QVQLVESGGGVVQPGRSLRLDCKASGITFSNSGMHWVRQAPGKGLEWVAVIWYDGSKRYYADSVKGRFTISRDNSKNTLFLQMNSLRAEDTAVYYCATNDDYWGQGTLVTVSSGGGGSGGGGSGGGGSEIVMTQSPATLSLSPGERATLSCRASQSVSSSVSWYQQKLGQAPRLLIYDASNRATGIPARFSGSGSGTDFTLTISSLEPEDFAVYYCQQRSKWPLTFGAGTKVEIKR | binds | – |
